T1: CAPRIN-1 protein on the cell surface of human cancer cell lines (human, UniProt Q14444 2-709)
T1 sequence (looked up): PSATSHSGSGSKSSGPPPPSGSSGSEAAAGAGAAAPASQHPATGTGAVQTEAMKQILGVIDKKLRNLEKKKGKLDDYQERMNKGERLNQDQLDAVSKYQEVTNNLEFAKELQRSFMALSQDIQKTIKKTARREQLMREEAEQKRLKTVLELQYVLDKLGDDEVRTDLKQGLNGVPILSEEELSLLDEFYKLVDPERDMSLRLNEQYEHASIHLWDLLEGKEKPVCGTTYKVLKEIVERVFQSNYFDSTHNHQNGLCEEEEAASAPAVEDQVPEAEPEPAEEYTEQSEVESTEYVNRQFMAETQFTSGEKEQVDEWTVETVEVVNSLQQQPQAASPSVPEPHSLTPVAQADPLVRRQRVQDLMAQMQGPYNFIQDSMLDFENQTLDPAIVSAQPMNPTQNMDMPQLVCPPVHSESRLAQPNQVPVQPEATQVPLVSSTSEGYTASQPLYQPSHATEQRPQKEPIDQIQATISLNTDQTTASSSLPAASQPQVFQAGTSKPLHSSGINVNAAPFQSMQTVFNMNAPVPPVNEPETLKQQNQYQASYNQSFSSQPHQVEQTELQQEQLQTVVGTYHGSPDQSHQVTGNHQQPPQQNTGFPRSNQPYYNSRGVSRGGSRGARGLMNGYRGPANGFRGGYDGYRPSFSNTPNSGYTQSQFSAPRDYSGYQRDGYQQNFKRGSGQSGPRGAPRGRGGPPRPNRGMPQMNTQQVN

B1: human-mouse chimeric comparative monoclonal antibody 4 (antibody, human IgG1, kappa, V domains shown)
VH: EVQLHQFGAELVKPGASVKISCKASGYTFTDYNMDWVKQSHGKSLEWIGDINPNYDSTSYNQKFKGKATLTVDKSSSTAYMELRSLTSEDTAVYYCARSRSYDYEGFAYWGQGTLVTVSA
VL: SGDRVSLSCRASQSISNYLHWYQQKSHESPRLLIKYASQSISGIPSRFSGSGSGTDFTLSINSVETEDFGMYFCQQSNSWPYTFGAGTKLEIKQ
B2: human-mouse chimeric comparative monoclonal antibody 7 (antibody, human IgG1, kappa, V domains shown)
VH: LQESGAELARPGASVKLSCKASGYTFTSYWMQWVKQRPGQGLEWIGAIYPGDGDTRYTQKFKGKATLTADKSSSTAYMQLSSLASEDSAVYYCARGEYGNYFAYWGQGTTVTVSS
VL: TSDASLGERVTITCKASQDINSYLSWFQQKPGKSPKTLIYRANRLVDGVPSRFSGSGSGQDYSLTISSLEYEDMGIYYCLQYDEFPLTFGGGTKLEIKQ
B3: human-mouse chimeric comparative monoclonal antibody 1 (antibody)
heavy: not shown
light: DIQMTQSPASLSASVGETVTITCRASGNIHNYLAWYQQKQGKSPQLLVYNAKTLADGVPSRFSGSGSGTQYSLKINSLQPEDFGSYYCQHFWSTLTFGAGTKLELKRTVAAPSVFIFPPSDEQLKSGTASVVCLLNNFYPREAKVQWKVDNALQSGNSQESVTEQDSKDSTYSLSSTLTLSKADYEKHKVYACEVTHQGLSSPVTKSFNRGEC
B4: human-mouse chimeric comparative monoclonal antibody 3 (antibody, human IgG1, kappa)
heavy: not shown
light: RTTSHMDSDIQLTQSPASLSASVGETVTITCRASGNIHNYLAWYQQKQGKSPQLLVYNAKTLADGVPSRFSGSGSGTQYSLKINSLQPEDFGSYYCQHFWSTLTFGGGTKLEIKQSDTVAAPSVFIFPPSDEQLKSGTASVVCLLNNFYPREAKVQWKVDNALQSGNSQESVTEQDSKDSTYSLSSTLTLSKADYEKHKVYACEVTHQGLSSPVTKSFNRGEC

Biological target: T1, CAPRIN-1 protein on the cell surface of …
Assay: cell-based or functional assay

| Binder | cytotoxic activity (ADCC, chromium 51 release) against MCF7, QG56, HCT-116, MIAPaCa-2 and Caki-2 [%] |
| --- | --- |
| B1 | < 5 |
| B2 | < 5 |
| B3 | < 5 |
| B4 | < 5 |

Reference: patent US20140154261A1 (TORAY INDUSTRIES, published 2014)
